Experimental data: patent US20250297019A1 (Genentech, published 2025)
Blank lines part the entries; values can stand above or below the binder they belong to.

Legend:
human CCR8 [1] = target: T1, human CCR8 (human, UniProt P51685 1-355); experiment: cell-based or functional assay
human CCR8 [2] = target: T1, human CCR8; experiment: cell-based or functional assay; remark: listed apart in the source
[3] = target: T2, human Fc gamma receptor IIIa F158, GST fusion (human, UniProt P08637 17-208); experiment: ELISA, captured GST-FcgR3a
T2 construct: extracellular domain; also called GST-FcgR3a.F158; FcgR3a.F158 protein; not shown: Gly-6xHis-glutathione S-transferase (GST) tag at the C-terminus
T2 sequence (P08637 17-208): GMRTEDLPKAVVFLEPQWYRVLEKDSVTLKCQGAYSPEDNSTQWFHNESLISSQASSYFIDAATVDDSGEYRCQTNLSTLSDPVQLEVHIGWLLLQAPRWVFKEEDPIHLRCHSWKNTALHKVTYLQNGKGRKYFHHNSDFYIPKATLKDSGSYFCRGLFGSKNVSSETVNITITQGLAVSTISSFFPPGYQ
Procedure: (§1) Briefly, an anti-GST antibody was coated on Nunc MAXISORP™ plates. GST-FcgR3a.V158 and GST-FcgR3a.F158 were captured at 500 ng/mL. Plates were then washed and then serially diluted anti-CCR8 antibodies starting at 100 μg/mL were incubated on the plate for 1 hour at room temperature. Plates were washed and bound antibody was detected by an HRP-conjugated anti-human IgG secondary antibody. Absorbance at 450 nm was measured by a plate reader. The data were fitted using a 4-parameter logistic curve in SOFTM^AX® Pro.

[4] = target: T3, human Fc gamma receptor IIIa V158, GST fusion (human, UniProt P08637 17-208); experiment: ELISA, captured GST-FcgR3a
T3 construct: extracellular domain; also called GST-FcgR3a.V158; FcgR3a.V158 protein; not shown: Gly-6xHis-glutathione S-transferase (GST) tag at the C-terminus
T3 sequence (P08637 17-208 F176V): as the sequence (P08637 17-208) above, with F160V counted along it
Procedure: as §1

cynomolgus monkey CCR8 = target: T4, cynomolgus monkey CCR8 (cynomolgus monkey, UniProt O97665 1-356 (rhesus entry)); experiment: competition of unlabelled antibody with a fixed concentration of the 125I-labelled same antibody on CHO cells stably expressing cyno CCR8 (CHO-cynoCCR8), filter plates, gamma counting
T4 construct: On CHO cells stably expressing cyno CCR8 or on cyno blood Treg cells; also called cyno CCR8; cynoCCR8
T4 sequence (O97665 other isoform, or with tags, fused parts or gaps): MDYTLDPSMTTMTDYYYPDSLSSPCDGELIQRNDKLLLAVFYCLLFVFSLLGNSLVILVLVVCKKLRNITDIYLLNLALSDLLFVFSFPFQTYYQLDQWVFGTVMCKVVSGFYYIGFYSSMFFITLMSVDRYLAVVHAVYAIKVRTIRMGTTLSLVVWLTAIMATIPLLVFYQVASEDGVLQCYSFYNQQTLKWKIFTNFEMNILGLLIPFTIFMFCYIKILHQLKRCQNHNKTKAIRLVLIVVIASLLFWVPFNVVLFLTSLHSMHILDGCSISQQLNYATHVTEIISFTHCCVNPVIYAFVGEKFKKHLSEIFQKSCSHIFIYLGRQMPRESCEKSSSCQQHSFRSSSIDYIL

human CCR8 [5] = target: T1, human CCR8; experiment: cell-based or functional assay; remark: listed apart in the source
human CCR8 [6] = target: T1, human CCR8; experiment: cell-based or functional assay; remark: listed apart in the source
mouse CCR8 = target: T5, mouse CCR8 (mouse, UniProt P56484 1-353); experiment: assay not described ('in vitro assays')
T5 construct: format of the KD assay of the anti-murine antibody is not described; also called mCCR8; murine CCR8
T5 sequence: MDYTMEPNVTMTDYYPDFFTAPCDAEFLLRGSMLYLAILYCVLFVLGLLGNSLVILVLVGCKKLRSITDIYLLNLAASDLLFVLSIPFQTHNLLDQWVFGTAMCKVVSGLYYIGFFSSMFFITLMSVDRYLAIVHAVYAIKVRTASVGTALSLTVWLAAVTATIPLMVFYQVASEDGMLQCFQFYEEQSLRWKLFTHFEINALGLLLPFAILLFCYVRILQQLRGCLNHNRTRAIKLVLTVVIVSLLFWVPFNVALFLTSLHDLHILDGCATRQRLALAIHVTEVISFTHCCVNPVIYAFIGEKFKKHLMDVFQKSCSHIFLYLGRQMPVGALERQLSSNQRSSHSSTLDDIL

IC50 of ligand blocking (Ca2+ influx, 20 nM CCL1) (human CCR8 [1]): 57.9 nM | ADCP EC50, macrophages of donor HR/FF (FIG. 14A) (human CCR8 [2]): 0.35 nM | ADCP EC50, macrophages of donor RR/FF (FIG. 14B) (human CCR8 [2]): 0.81 nM | ADCP EC50, macrophages of donor RR/VF (FIG. 14D) (human CCR8 [2]): 0.41 nM
B1: hu.Ab4.H12L3 (antibody, human IgG1, kappa)
heavy: not shown
light: DYQMTQSPSSLSASVGDRVTITCQASQSISSYLSWYQQKPGKAPKLLIYKASTLASGVPSRFSGSGSGTDFTLTISSLQPEDFATYYCQQGYTSSNIDNIFGGGTKVEIKRTVAAPSVFIFPPSDEQLKSGTASVVCLLNNFYPREAKVQWKVDNALQSGNSQESVTEQDSKDSTYSLSSTLTLSKADYEKHKVYACEVTHQGLSSPVTKSFNRGEC

fold increase in binding potency over the fucosylated counterpart [3]: ~10 fold | fold increase in binding potency over the fucosylated counterpart [4]: ~10 fold | ADCP EC50, macrophages of donor HR/FF (FIG. 14A) (human CCR8 [2]): 0.025 nM | ADCP EC50, macrophages of donor HR/FF (FIG. 14E) (human CCR8 [2]): 0.035 nM | ADCP EC50, macrophages of donor HR/VF (FIG. 14C) (human CCR8 [2]): 0.017 nM | ADCP EC50, macrophages of donor RR/FF (FIG. 14B) (human CCR8 [2]): 0.12 nM | ADCP EC50, macrophages of donor RR/VF (FIG. 14D) (human CCR8 [2]): 0.079 nM
B2: Afuc.hu.Ab4.H12L3 (antibody, human IgG1, kappa)
heavy: not shown
light: B1 light
modifications: afucosylated Fc N-glycan (position Asn 299 as printed); about 80% to about 95% afucosylation
notes: also called afucosylated hu.Ab4.H12L3; Afuc.Ab4.H12L3

fold increase in binding potency over the fucosylated counterpart [3]: ~10 fold | fold increase in binding potency over the fucosylated counterpart [4]: ~10 fold | ADCP EC50, macrophages of donor HR/FF (FIG. 14A) (human CCR8 [2]): 0.017 nM | ADCP EC50, macrophages of donor HR/FF (FIG. 14E) (human CCR8 [2]): 0.022 nM | ADCP EC50, macrophages of donor HR/VF (FIG. 14C) (human CCR8 [2]): 0.01 nM | ADCP EC50, macrophages of donor RR/FF (FIG. 14B) (human CCR8 [2]): 0.2 nM | ADCP EC50, macrophages of donor RR/VF (FIG. 14D) (human CCR8 [2]): 0.5 nM
B3: Afuc.hu.Ab5.H13L1 (antibody, human IgG1, kappa)
heavy: not shown
light: DIQVTQSPSSLSASVGDRVTITCQASENIANALAWYQQKPGKPPKFLIYGASNLASGVPSRFSGSGSGTDFTFTISSLQPEDIATYYCQQAYYGNSFVEGTFGGGTKVEIKRTVAAPSVFIFPPSDEQLKSGTASVVCLLNNFYPREAKVQWKVDNALQSGNSQESVTEQDSKDSTYSLSSTLTLSKADYEKHKVYACEVTHQGLSSPVTKSFNRGEC
modifications: afucosylated Fc N-glycan (position Asn 299 as printed); about 80% to about 95% afucosylation
notes: also called afucosylated hu.Ab5.H13L1; Afuc.Ab5.H13L1

IC50 (read off the curve) (cynomolgus monkey CCR8): ~0.04 nM
B4: hu.Ab5.H13L1 (antibody, human IgG1, kappa)
heavy: not shown
light: B3 light
notes: Fucosylated human IgG1 kappa; also called Ab5 variant; huCCR8 antibody hu.Ab5.H13L1 (hIgG1)

ADCC EC50 (calcein release; NK-92_F158 effector cells, CHO/hCCR8.Gna15 target cells) (human CCR8 [5]): 0.02 nM
B5: hu.Ab5.H1L1 (antibody, human IgG1, V domains shown)
VH: EQQLLESGGGLVQPGGSLRLSCAVSGIDLSTYAMGWVRQAPGKGLEWIGLIHRSGRTYYATWAKGRFTISKDSSKTTVYLQMNSLRAEDTAVYFCTRSYPDYSATASIWGPGTTVTVSS
VL: DIQVTQSPSSLSASVGDRVTITCQASENIANALAWYQQKPGKPPKFLIYGASNLASGVPSRFSGSGSGTDFTFTISSLQPEDIATYYCQQAYYGNSFVEGTFGGGTKVEIK

ADCC EC50 (calcein release; NK-92_F158 effector cells, CHO/hCCR8.Gna15 target cells) (human CCR8 [5]): 0.08 nM | IC50 of CCL1 blocking (Ca2+ influx, CHO/hCCR8.Gna15 cells, 20 nM CCL1) (human CCR8 [6]): 57.9 nM
B6: hu.Ab4.H1L1 (antibody, human IgG1, V domains shown)
VH: EQQLLESGGGLVQPGGSLRLSCAVSGFSLSNYAMIWVRQAPGKGLEWVGTISLGGYTYYANWAKGRFTISKDSSKTTVYLQMNSLRAEDTAVYFCARARWSTDSAIYTYAFDPWGPGTLVTVSS
VL: DYQMTQSPSSLSASVGDRVTITCQASQSISSYLSWYQQKPGKRPKLLIYKASTLASGVPSRFSGSGSGTDFTLTISSLQPEDFATYYCQQGYTSSNIDNIFGGGTKVEIK

Kd (mouse CCR8): 0.218 nM
B7: mouse surrogate anti-CCR8 mAb (antibody, mouse IgG2a, kappa, V domains shown)
VH: QSVKESGGRLVTPGGSLTLTCTVSRIDLNEYSMAWVRQAPGKGLEWIGYIDAGSGSAYYASWAKGRFTISKTSSTTVDLEMTTLTTEDTATYFCARDVYPGYTTGTNLGLWGPGTLVTVSS
VL: AAVLTQTPASVSAAVGGTVSISCRSSKSVYSNYLSWYQQKPGQPPKLLIYRASTLTPGVPSRFKGSGSGTQFSLTIRDVQSADAGSYYCAGGYSSGSDNTFGGGTKLEIKR
notes: Chimeric rabbit-derived murine IgG2a; also called Anti-mCCR8; anti-murine CCR8 antibody

ADCC EC50 (calcein release; NK-92_F158 effector cells, CHO/hCCR8.Gna15 target cells) (human CCR8 [5]): 0.02 nM
B8: hu.Ab3.H1L1 (antibody, human IgG1, kappa, V domains shown)
VH: EQQLVESGGGLVQPGGSLRLSCAVSGFSLSSYAMSWVRQAPGKGLEWIGVISASGRIIYATWAKGRFTISKDSAKTSVYLQMNSLRDEDTAVYFCARGVPSYSLVMSDWGPGTTVTVSS
VL: EPVMTQSPATLSVSPGERATLSCQASQSISNALAWYQQKPGQPPRLLIYEVSKVASGVPARFSGSGSGTEFTLTISSLQSEDFAVYYCQSAYYGNSYVWGAFGQGTKVEIKR
